According to US20160272683A1 (Novo Nordisk, published 2016):
Numbered stars: 1 amine (or outer) side, 2 acyl side, 3 side chain; on linkers, the order of the positions; unused ones are H or OH. * marks the point of attachment. C20 diacid = O=C(O)CCCCCCCCCCCCCCCCCCC(=O)*; C18 diacid = O=C(O)CCCCCCCCCCCCCCCCC(=O)*; γGlu = O=C(O)[C@H](CCC(=O)[*:2])N[*:1]

Assays:
[1] = biological target: T1, human amylin 3(a) receptor (human calcitonin receptor co-expressed with RAMP-3) on BHK570/CRE-luc cells (human, UniProt P30988 25-474; O60896 24-148); test: cell-based or functional assay
T1 sequence (looked up) 1: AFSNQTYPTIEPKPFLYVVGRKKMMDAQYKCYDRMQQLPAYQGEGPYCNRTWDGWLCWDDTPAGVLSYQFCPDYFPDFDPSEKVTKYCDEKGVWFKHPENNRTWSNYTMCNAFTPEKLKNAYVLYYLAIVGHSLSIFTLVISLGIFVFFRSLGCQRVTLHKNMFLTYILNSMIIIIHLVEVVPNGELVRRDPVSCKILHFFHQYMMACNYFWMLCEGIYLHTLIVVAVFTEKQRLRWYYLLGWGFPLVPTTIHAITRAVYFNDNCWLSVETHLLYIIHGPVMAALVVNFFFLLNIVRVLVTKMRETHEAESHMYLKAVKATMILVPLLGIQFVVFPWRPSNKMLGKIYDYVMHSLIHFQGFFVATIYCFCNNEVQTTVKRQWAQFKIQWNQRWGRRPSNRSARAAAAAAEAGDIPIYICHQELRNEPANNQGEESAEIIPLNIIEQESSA
T1 sequence (looked up) 2: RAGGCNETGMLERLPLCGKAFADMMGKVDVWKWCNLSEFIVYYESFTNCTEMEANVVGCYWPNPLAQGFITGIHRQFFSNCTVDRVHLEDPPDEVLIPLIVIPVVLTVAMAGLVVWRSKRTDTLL

[2] = biological target: T2, human calcitonin receptor on BHK570/CRE-luc cells (human, UniProt P30988 25-474); test: cell-based or functional assay
T2 sequence (looked up): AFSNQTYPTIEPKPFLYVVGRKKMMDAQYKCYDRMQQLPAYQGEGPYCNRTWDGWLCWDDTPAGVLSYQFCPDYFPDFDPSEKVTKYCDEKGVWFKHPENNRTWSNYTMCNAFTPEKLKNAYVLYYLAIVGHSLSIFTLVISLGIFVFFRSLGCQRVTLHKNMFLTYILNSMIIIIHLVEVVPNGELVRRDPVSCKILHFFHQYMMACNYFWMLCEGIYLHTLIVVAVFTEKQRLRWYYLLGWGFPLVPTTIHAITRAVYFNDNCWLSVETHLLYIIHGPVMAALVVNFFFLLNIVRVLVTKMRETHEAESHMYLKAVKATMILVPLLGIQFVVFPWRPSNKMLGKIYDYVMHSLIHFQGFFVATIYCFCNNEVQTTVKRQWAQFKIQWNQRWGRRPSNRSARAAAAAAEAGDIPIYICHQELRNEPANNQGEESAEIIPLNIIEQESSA

| hAmylin-R funct. EC50 (pM), tested with HSA [1] [pM] | hCTR funct. EC50 (pM), tested with HSA [2] [pM] | Binder |
| --- | --- | --- |
| 71 | 45 | {C20 diacid-γGlu}-ASGLSTAALGRLSAELHELATYPRTETGSGSP-NH2 [[N-terminal(C20 diacid-gGlu), des1, 4G, 23Y, 30S, 31G]mimylin] |
| 93 | 71 | {C20 diacid-γGlu}-ASELSTAALGRLSAELHELATYPRTETGSGSY-NH2 (SMILES CC(C)C[C@H](NC(=O)[C@H](C)NC(=O)[C@H](C)NC(=O)[C@@H](NC(=O)[C@H](CO)NC(=O)[C@H](CC(C)C)NC(=O)[C@H](CCC(=O)O)NC(=O)[C@H](CO)NC(=O)[C@H](C)NC(=O)CC[C@H](NC(=O)CCCCCCCCCCCCCCCCCCC(=O)O)C(=O)O)[C@@H](C)O)C(=O)NCC(=O)N[C@@H](CCCNC(=N)N)C(=O)N[C@@H](CC(C)C)C(=O)N[C@@H](CO)C(=O)N[C@@H](C)C(=O)N[C@@H](CCC(=O)O)C(=O)N[C@@H](CC(C)C)C(=O)N[C@@H](Cc1c[nH]cn1)C(=O)N[C@@H](CCC(=O)O)C(=O)N[C@@H](CC(C)C)C(=O)N[C@@H](C)C(=O)N[C@H](C(=O)N[C@@H](Cc1ccc(O)cc1)C(=O)N1CCC[C@H]1C(=O)N[C@@H](CCCNC(=N)N)C(=O)N[C@H](C(=O)N[C@@H](CCC(=O)O)C(=O)N[C@H](C(=O)NCC(=O)N[C@@H](CO)C(=O)NCC(=O)N[C@@H](CO)C(=O)N[C@@H](Cc1ccc(O)cc1)C(N)=O)[C@@H](C)O)[C@@H](C)O)[C@@H](C)O) [[N-terminal(C20 diacid-gGlu), des1, 23Y, 30S, 31G, 33Y]mimylin] |
| 100 | 37 | {C20 diacid-γGlu}-ASELSTAALGRLSAELHELATYPRTETGSGAP-NH2 (SMILES CC(C)C[C@H](NC(=O)[C@H](C)NC(=O)[C@H](C)NC(=O)[C@@H](NC(=O)[C@H](CO)NC(=O)[C@H](CC(C)C)NC(=O)[C@H](CCC(=O)O)NC(=O)[C@H](CO)NC(=O)[C@H](C)NC(=O)CC[C@H](NC(=O)CCCCCCCCCCCCCCCCCCC(=O)O)C(=O)O)[C@@H](C)O)C(=O)NCC(=O)N[C@@H](CCCNC(=N)N)C(=O)N[C@@H](CC(C)C)C(=O)N[C@@H](CO)C(=O)N[C@@H](C)C(=O)N[C@@H](CCC(=O)O)C(=O)N[C@@H](CC(C)C)C(=O)N[C@@H](Cc1c[nH]cn1)C(=O)N[C@@H](CCC(=O)O)C(=O)N[C@@H](CC(C)C)C(=O)N[C@@H](C)C(=O)N[C@H](C(=O)N[C@@H](Cc1ccc(O)cc1)C(=O)N1CCC[C@H]1C(=O)N[C@@H](CCCNC(=N)N)C(=O)N[C@H](C(=O)N[C@@H](CCC(=O)O)C(=O)N[C@H](C(=O)NCC(=O)N[C@@H](CO)C(=O)NCC(=O)N[C@@H](C)C(=O)N1CCC[C@H]1C(N)=O)[C@@H](C)O)[C@@H](C)O)[C@@H](C)O) [[N-terminal(C20 diacid-gGlu), des1, 23Y, 30S, 31G, 32A]mimylin] |
| 58 | 30 | {C20 diacid-γGlu}-ASELSTAALGRLSAELHELSTYPRTETGSGSP-NH2 (SMILES CC(C)C[C@H](NC(=O)[C@H](C)NC(=O)[C@H](C)NC(=O)[C@@H](NC(=O)[C@H](CO)NC(=O)[C@H](CC(C)C)NC(=O)[C@H](CCC(=O)O)NC(=O)[C@H](CO)NC(=O)[C@H](C)NC(=O)CC[C@H](NC(=O)CCCCCCCCCCCCCCCCCCC(=O)O)C(=O)O)[C@@H](C)O)C(=O)NCC(=O)N[C@@H](CCCNC(=N)N)C(=O)N[C@@H](CC(C)C)C(=O)N[C@@H](CO)C(=O)N[C@@H](C)C(=O)N[C@@H](CCC(=O)O)C(=O)N[C@@H](CC(C)C)C(=O)N[C@@H](Cc1c[nH]cn1)C(=O)N[C@@H](CCC(=O)O)C(=O)N[C@@H](CC(C)C)C(=O)N[C@@H](CO)C(=O)N[C@H](C(=O)N[C@@H](Cc1ccc(O)cc1)C(=O)N1CCC[C@H]1C(=O)N[C@@H](CCCNC(=N)N)C(=O)N[C@H](C(=O)N[C@@H](CCC(=O)O)C(=O)N[C@H](C(=O)NCC(=O)N[C@@H](CO)C(=O)NCC(=O)N[C@@H](CO)C(=O)N1CCC[C@H]1C(N)=O)[C@@H](C)O)[C@@H](C)O)[C@@H](C)O) [[N-terminal(C20 diacid-gGlu), des1, 21S, 23Y, 30S, 31G]mimylin] |
| 440 | 123 | {C20 diacid-γGlu}-ASELSTAALGHLSAELHELATLPHTETGSGSP-NH2 (SMILES CC(C)C[C@H](NC(=O)[C@H](C)NC(=O)[C@H](C)NC(=O)[C@@H](NC(=O)[C@H](CO)NC(=O)[C@H](CC(C)C)NC(=O)[C@H](CCC(=O)O)NC(=O)[C@H](CO)NC(=O)[C@H](C)NC(=O)CC[C@H](NC(=O)CCCCCCCCCCCCCCCCCCC(=O)O)C(=O)O)[C@@H](C)O)C(=O)NCC(=O)N[C@@H](Cc1c[nH]cn1)C(=O)N[C@@H](CC(C)C)C(=O)N[C@@H](CO)C(=O)N[C@@H](C)C(=O)N[C@@H](CCC(=O)O)C(=O)N[C@@H](CC(C)C)C(=O)N[C@@H](Cc1c[nH]cn1)C(=O)N[C@@H](CCC(=O)O)C(=O)N[C@@H](CC(C)C)C(=O)N[C@@H](C)C(=O)N[C@H](C(=O)N[C@@H](CC(C)C)C(=O)N1CCC[C@H]1C(=O)N[C@@H](Cc1c[nH]cn1)C(=O)N[C@H](C(=O)N[C@@H](CCC(=O)O)C(=O)N[C@H](C(=O)NCC(=O)N[C@@H](CO)C(=O)NCC(=O)N[C@@H](CO)C(=O)N1CCC[C@H]1C(N)=O)[C@@H](C)O)[C@@H](C)O)[C@@H](C)O) [[N-terminal(C20 diacid-gGlu), des1, 12H, 25H, 30S, 31G]mimylin] |
| 976 | 418 | {C20 diacid-γGlu}-ASELSTAALGRLSAELHELATYPRTETGSGSY-OH [[N-terminal(C20 diacid-gGlu), des1, 23Y, 30S, 31G, 33Y, C-terminal(-)]mimylin] |

Further lines, the binder ahead of its results:

| Binder | hAmylin-R funct. EC50 (pM), tested with HSA [1] [pM] | hCTR funct. EC50 (pM), tested with HSA [2] [pM] |
| --- | --- | --- |
| {C18 diacid-γGlu}-ASELSTAVLGRLSAELHELATLPRTETGSGSP-NH2 (SMILES CC(C)C[C@H](NC(=O)[C@H](CCC(=O)O)NC(=O)[C@H](Cc1c[nH]cn1)NC(=O)[C@H](CC(C)C)NC(=O)[C@H](CCC(=O)O)NC(=O)[C@H](C)NC(=O)[C@H](CO)NC(=O)[C@H](CC(C)C)NC(=O)[C@H](CCCNC(=N)N)NC(=O)CNC(=O)[C@H](CC(C)C)NC(=O)[C@@H](NC(=O)[C@H](C)NC(=O)[C@@H](NC(=O)[C@H](CO)NC(=O)[C@H](CC(C)C)NC(=O)[C@H](CCC(=O)O)NC(=O)[C@H](CO)NC(=O)[C@H](C)NC(=O)CC[C@H](NC(=O)CCCCCCCCCCCCCCCCC(=O)O)C(=O)O)[C@@H](C)O)C(C)C)C(=O)N[C@@H](C)C(=O)N[C@H](C(=O)N[C@@H](CC(C)C)C(=O)N1CCC[C@H]1C(=O)N[C@@H](CCCNC(=N)N)C(=O)N[C@H](C(=O)N[C@@H](CCC(=O)O)C(=O)N[C@H](C(=O)NCC(=O)N[C@@H](CO)C(=O)NCC(=O)N[C@@H](CO)C(=O)N1CCC[C@H]1C(N)=O)[C@@H](C)O)[C@@H](C)O)[C@@H](C)O) [[N-terminal(C18 diacid-gGlu), des1, 9V, 30S, 31G]mimylin] | 17 | 11 |
| {C20 diacid-γGlu}-EAASELSTAALGRLSAELHELATYPRTETGSGSP-NH2 (SMILES CC(C)C[C@H](NC(=O)[C@H](C)NC(=O)[C@H](C)NC(=O)[C@@H](NC(=O)[C@H](CO)NC(=O)[C@H](CC(C)C)NC(=O)[C@H](CCC(=O)O)NC(=O)[C@H](CO)NC(=O)[C@H](C)NC(=O)[C@H](C)NC(=O)[C@H](CCC(=O)O)NC(=O)CC[C@H](NC(=O)CCCCCCCCCCCCCCCCCCC(=O)O)C(=O)O)[C@@H](C)O)C(=O)NCC(=O)N[C@@H](CCCNC(=N)N)C(=O)N[C@@H](CC(C)C)C(=O)N[C@@H](CO)C(=O)N[C@@H](C)C(=O)N[C@@H](CCC(=O)O)C(=O)N[C@@H](CC(C)C)C(=O)N[C@@H](Cc1c[nH]cn1)C(=O)N[C@@H](CCC(=O)O)C(=O)N[C@@H](CC(C)C)C(=O)N[C@@H](C)C(=O)N[C@H](C(=O)N[C@@H](Cc1ccc(O)cc1)C(=O)N1CCC[C@H]1C(=O)N[C@@H](CCCNC(=N)N)C(=O)N[C@H](C(=O)N[C@@H](CCC(=O)O)C(=O)N[C@H](C(=O)NCC(=O)N[C@@H](CO)C(=O)NCC(=O)N[C@@H](CO)C(=O)N1CCC[C@H]1C(N)=O)[C@@H](C)O)[C@@H](C)O)[C@@H](C)O) [[N-terminal(C20 diacid-gGlu), -1E, 1A, 23Y, 30S, 31G]mimylin] | 181 | 113 |
| {C18 diacid-γGlu}-ASELTTAVLGRLSAELHELATLPRTETGSGSP-NH2 (SMILES CC(C)C[C@H](NC(=O)[C@H](CCC(=O)O)NC(=O)[C@H](Cc1c[nH]cn1)NC(=O)[C@H](CC(C)C)NC(=O)[C@H](CCC(=O)O)NC(=O)[C@H](C)NC(=O)[C@H](CO)NC(=O)[C@H](CC(C)C)NC(=O)[C@H](CCCNC(=N)N)NC(=O)CNC(=O)[C@H](CC(C)C)NC(=O)[C@@H](NC(=O)[C@H](C)NC(=O)[C@@H](NC(=O)[C@@H](NC(=O)[C@H](CC(C)C)NC(=O)[C@H](CCC(=O)O)NC(=O)[C@H](CO)NC(=O)[C@H](C)NC(=O)CC[C@H](NC(=O)CCCCCCCCCCCCCCCCC(=O)O)C(=O)O)[C@@H](C)O)[C@@H](C)O)C(C)C)C(=O)N[C@@H](C)C(=O)N[C@H](C(=O)N[C@@H](CC(C)C)C(=O)N1CCC[C@H]1C(=O)N[C@@H](CCCNC(=N)N)C(=O)N[C@H](C(=O)N[C@@H](CCC(=O)O)C(=O)N[C@H](C(=O)NCC(=O)N[C@@H](CO)C(=O)NCC(=O)N[C@@H](CO)C(=O)N1CCC[C@H]1C(N)=O)[C@@H](C)O)[C@@H](C)O)[C@@H](C)O) [[N-terminal(C18 diacid-gGlu), des1, 6T, 9V, 30S, 31G]mimylin] | 19 | 9 |
| {C18 diacid-γGlu}-ASEVSTAVLGRLSAELHELATLPRTETGSGSP-NH2 [[N-terminal(C18 diacid-gGlu), des1, 5V, 9V, 30S, 31G]mimylin] | 356 | 87 |
